Experimental data taken from US11155602B2, “Polypeptides targeting HIV fusion” (priority 2015, dated 2021).
Substitutions are numbered along the chain they refer to.

B1: 231 (protein)
chain: MGVSDVPRDLEVVAATPTSLLISWEYKVHPYRYYRITYGETGGNSPVQEFTVPSVLSTATISGLKPGVDYTITVYAVTYGVNSIPISINYRTEIDKPSQHHHHHH
modifications: Adnectin
B2: 239 (protein)
chain: B1 chain with E25Q, Y33W
modifications: Adnectin
B3: 126 (protein)
chain: B1 chain with V81I, N82Q, I84P
modifications: Adnectin
B4: 240 (protein)
chain: B1 chain with H29S
modifications: Adnectin
B5: 244 (protein)
chain: B1 chain with H29D, N82D, I84D
modifications: Adnectin
B6: 238 (protein)
chain: B1 chain with H29N, Y31W, V81I, N82Q, I84P
modifications: Adnectin
B7: 235 (protein)
chain: B1 chain with P30Y, Y31D, Y79N, N82L, I84S
modifications: Adnectin
B8: 234 (protein)
chain: B1 chain with H29N, P30A, V81I, N82D, I84S
modifications: Adnectin
B9: 129 (protein)
chain: B1 chain with T58S, T60E, V81I, N82D, I84P
modifications: Adnectin
B10: 233 (protein)
chain: B1 chain with Y79D, N82Q, I84S
modifications: Adnectin
B11: 243 (protein)
chain: B1 chain with H29N, Y31W, N82D, I84D
modifications: Adnectin
B12: 241 (protein)
chain: B1 chain with H29N, Y31W, I84L
modifications: Adnectin
B13: 236 (protein)
chain: B1 chain with H29N, Y31W, Y79R, N82D, I84A
modifications: Adnectin
B14: 232 (protein)
chain: B1 chain with H29N, P30A, V81I, N82E, I84S
modifications: Adnectin
B15: 127 (protein)
chain: MGHHHHHHGGVSDVPRDLEVVAATPTSLLISWQYKVHPYRYYRITYGETGGNSPVQEFTVPSVLSSAQISGLKPGVDYTITVYAVTYGIESSPISINYRTPGG
modifications: Adnectin
B16: 128 (protein)
chain: B15 chain with Q33E, Q68E, E90D
modifications: Adnectin
B17: 245 (protein)
chain: MGHHHHHHGGSVSDVPRDLEVVAATPTSLLISWKYQVHAYRYYRITYGETGGNSPVQEFTVPSVLSTATINGLKPGVDYTITVYAVTYGIISEPISINYRTEID
modifications: Adnectin
B18: 130 (protein)
chain: B17 chain with K34E, Q36N, A39Y, Y40D, N71S, Y88D, I90V, I91H, E93S
modifications: Adnectin
B19: 257 (protein)
chain: B17 chain with K34E, Q36K, A39P, N71S, Y88N, I90D, I91D, E93A
modifications: Adnectin
B20: 256 (protein)
chain: B17 chain with K34E, Q36K, A39P, N71S, I90D, I91A, E93A
modifications: Adnectin
B21: 253 (protein)
chain: B17 chain with K34E, Q36K, H38D, N71S, I90D, I91D, E93A
modifications: Adnectin
B22: 254 (protein)
chain: B17 chain with K34E, Q36K, H38D, A39S, N71S, I90D, I91D, E93A
modifications: Adnectin
B23: 274 (protein)
chain: B17 chain with K34E, Q36R, A39P, N71S, I90D, I91D, E93A
modifications: Adnectin
B24: 246 (protein)
chain: B17 chain with K34E, Q36K, H38N, A39Y, Y40N, N71S, Y88E, I90V, I91Q, E93A
modifications: Adnectin
B25: 277 (protein)
chain: B17 chain with K34E, Q36K, A39P, E58D, N71S, I90D, I91D, E93A
modifications: Adnectin
B26: 263 (protein)
chain: B17 chain with K34E, Q36K, H38D, A39T, Y40W, N71S, I90D, I91D, E93A
modifications: Adnectin
B27: 267 (protein)
chain: B17 chain with K34E, Q36K, A39P, E58D, N71R, I90D, I91D, E93A
modifications: Adnectin
B28: 278 (protein)
chain: B17 chain with K34E, Q36K, H38A, A39R, Y40W, N71S, I90D, I91D, E93A
modifications: Adnectin
B29: 258 (protein)
chain: B17 chain with K34E, Q36K, A39P, T67S, N71R, I90D, I91D, E93A
modifications: Adnectin
B30: 280 (protein)
chain: B17 chain with K34E, Q36K, H38D, A39Y, Y40G, N71S, I90D, I91D, E93A
modifications: Adnectin
B31: 272 (protein)
chain: B17 chain with K34E, Q36K, H38D, A39T, N71S, I90D, I91D, E93A
modifications: Adnectin
B32: 279 (protein)
chain: B17 chain with K34E, Q36K, H38D, A39H, Y40Q, N71S, I90D, I91D, E93A
modifications: Adnectin
B33: 262 (protein)
chain: B17 chain with K34E, Q36K, H38D, A39G, Y40W, N71S, I90D, I91D, E93A
modifications: Adnectin
B34: 259 (protein)
chain: B17 chain with K34E, Q36K, A39P, T69K, N71S, I90D, I91D, E93A
modifications: Adnectin
B35: 249 (protein)
chain: B17 chain with K34E, Q36K, A39P, T67S, I70L, I90D, I91D, E93A
modifications: Adnectin
B36: 266 (protein)
chain: B17 chain with K34E, Q36K, A39P, N71S, Y88R, I90D, I91D, E93A
modifications: Adnectin
B37: 260 (protein)
chain: B17 chain with K34E, Q36K, A39P, T60R, N71S, I90D, I91D, E93A
modifications: Adnectin
B38: 251 (protein)
chain: B17 chain with K34E, Q36K, A39P, T60N, N71S, I90D, I91D, E93A
modifications: Adnectin
B39: 269 (protein)
chain: B17 chain with K34E, Q36K, A39P, E58A, N71S, I90D, I91D, E93A
modifications: Adnectin
B40: 281 (protein)
chain: B17 chain with Q36G, A39P, N71S, I90D, I91D, E93A
modifications: Adnectin
B41: 270 (protein)
chain: B17 chain with K34E, Q36K, H38A, A39P, N71S, I90D, I91D, E93A
modifications: Adnectin
B42: 271 (protein)
chain: B17 chain with K34E, Q36K, H38D, A39G, N71S, I90D, I91D, E93A
modifications: Adnectin
B43: 261 (protein)
chain: B17 chain with K34E, Q36K, H38A, A39P, Y40W, N71S, I90D, I91D, E93A
modifications: Adnectin
B44: 248 (protein)
chain: B17 chain with K34E, Q36K, A39P, S54T, T60R, N71S, G89A, I90D, I91A, E93A
modifications: Adnectin
B45: 275 (protein)
chain: B17 chain with K34E, Q36K, A39P, E58S, N71S, I90A, I91D, E93A
modifications: Adnectin
B46: 255 (protein)
chain: B17 chain with K34E, Q36K, A39P, N71S, I90D, I91D, E93A
modifications: Adnectin
B47: 250 (protein)
chain: B17 chain with K34E, Q36K, A39P, T67S, T69K, N71S, I90D, I91D, E93A
modifications: Adnectin
B48: 252 (protein)
chain: B17 chain with K34E, Q36K, H38A, A39H, Y40R, N71S, I90D, I91D, E93A
modifications: Adnectin
B49: 282 (protein)
chain: B17 chain with K34E, Q36S, A39P, N71S, I90D, I91D, E93A
modifications: Adnectin
B50: 273 (protein)
chain: B17 chain with K34E, Q36E, A39P, N71S, I90D, I91D, E93A
modifications: Adnectin
B51: 265 (protein)
chain: B17 chain with K34E, Q36K, A39P, N71S, I90A, I91D, E93A
modifications: Adnectin
B52: 276 (protein)
chain: B17 chain with K34E, Q36K, A39P, N71R, I90D, I91D, E93A
modifications: Adnectin

The molecules below were run on NL-Rluc virus (assay: Combinectin potency assay: antiviral EC50, NL-Rluc virus in MT-2 cells, luciferase readout). Details: Anti-N17 Adnectin, Table 3.
Type: cell-based, HIV-1
Summary of the method: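 MT-2 cells infected with replication-competent NL-Rluc HIV (nef replaced by Renilla luciferase) at MOI 0.01 for 1 h, then added to threefold-diluted peptides (11 concentrations, triplicate). After 4–5 days, luciferase measured by Dual Luciferase; EC50 relative to no-peptide wells.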
With B1 the EC50 was 10 nM. Molecule B2 has an EC50 of 4 nM. For B3, the EC50 was 8 nM. In the case of B4, the EC50 is reported as 5 nM. B5 showed an EC50 of 58 nM. In the case of B6, the EC50 is reported as 11 nM. Molecule B7 has an EC50 of 29 nM. B8 showed an EC50 of 20 nM. With B9 the EC50 was 11 nM. With B10 the EC50 was 55 nM. B11 was tested, and the EC50 was 48 nM. With B12 the EC50 was 8 nM. B13 was tested, and the EC50 was 85 nM. B14 was tested, and the EC50 was 47 nM. Molecule B15 has an EC50 of 9 nM. B16 showed an EC50 of 18 nM. Molecule B17 has an EC50 of 50 nM. In the case of B18, the EC50 is reported as 42 nM. In the case of B19, the EC50 is reported as greater than 1000 nM. B20 was tested, and the EC50 was 170 nM. Molecule B21 has an EC50 greater than 1000 nM. Molecule B22 has an EC50 greater than 1000 nM. With B23 the EC50 was 115 nM. B24 was tested, and the EC50 was greater than 1000 nM. B25 was tested, and the EC50 was greater than 1000 nM. B26 was tested, and the EC50 was greater than 1000 nM. With B27 the EC50 was greater than 1000 nM. Molecule B28 has an EC50 greater than 1000 nM. B29 was tested, and the EC50 was 195 nM. B30 gave an EC50 greater than 1000 nM. With B31 the EC50 was greater than 1000 nM. In the case of B32, the EC50 is reported as greater than 1000 nM. Work on B33 yielded an EC50 greater than 1000 nM. In the case of B34, the EC50 is reported as 135 nM. B35 showed an EC50 of 83 nM. B36 showed an EC50 greater than 1000 nM. With B37 the EC50 was 188 nM. B38 was tested, and the EC50 was 186 nM. For B39, the EC50 was 184 nM. For B40, the EC50 was greater than 1000 nM. With B41 the EC50 was greater than 1000 nM. In the case of B42, the EC50 is reported as greater than 1000 nM. Work on B43 yielded an EC50 greater than 1000 nM. B44 was tested, and the EC50 was greater than 1000 nM. Work on B45 yielded an EC50 of 180 nM. Work on B46 yielded an EC50 of 136 nM. Work on B47 yielded an EC50 of 218 nM. B48 gave an EC50 greater than 1000 nM. For B49, the EC50 was 56 nM. In the case of B50, the EC50 is reported as greater than 1000 nM. In the case of B51, the EC50 is reported as 63 nM. Molecule B52 has an EC50 of 16 nM.
